Experimental data from the supplement of paper PMC9170038.

Experiments:
MS2 coat protein [1] = assay: apparent KD of MS2 coat protein; designed switch direction (-1 OFF switch, 1 ON switch): 1; higher = weaker reporter binding; details: input ligand: microRNA oligo, concentration not stated
Method in brief: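 The reported apparent KD is a per-design median over clusters, from curve fits of normalised cluster fluorescence. Protein titrations used SNAP-549-labelled MS2 coat protein, doubled from 0.7 or 1.5 nM to 3 µM, in Tris-HCl pH 7.5 buffer with KCl, MgCl2, BSA, DTT, tRNA and Tween-20, with no input, 200 uM small-molecule ligand, or an oligonucleotide input. The RNA switches were transcribed on Illumina chips by stalled E. coli RNA polymerase.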

MS2 coat protein [2] = assay: apparent KD of MS2 coat protein; higher = weaker reporter binding; details: Eterna round: R107
Method in brief: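 Titrations with SNAP-549-labelled MS2 coat protein ran in twofold steps from 0.7 or 1.5 nM to 3 µM, each step taking 0.8–1.5 h at the start and 10–20 min toward the end. The targets were designed RNA switches transcribed on-chip from Illumina sequencing clusters, held in 100 mM Tris-HCl pH 7.5, 80 mM KCl, 4 mM MgCl2, without or with constant ligand. Apparent KD was taken per design as the median of normalised cluster binding-curve fits.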

[3] = input ligand: theophylline 20 uM
[4] = input ligand: theophylline 2 mM
[5] = input ligand: tryptophan 2.4 mM

Row | Sequence | apparent KD of MS2 coat protein (MS2 coat protein [1]) [µM] | apparent KD of MS2 coat protein (MS2 coat protein [2]; input ligand: arginine 13.2 mM) [µM] | apparent KD of MS2 coat protein (MS2 coat protein [2]; [3]) [µM] | apparent KD of MS2 coat protein (MS2 coat protein [2]; [4]) [µM] | apparent KD of MS2 coat protein (MS2 coat protein [2]; [5]) [µM] | apparent KD of MS2 coat protein (MS2 coat protein [2]; input ligand: none) [µM]
1 | AAAAAACAUGAGGAUCACCCAUGUCAAAAGACAUGAGGAUAUGUACAGACUUCGGUCUGUACAGAAGGCAUGAAAA [SS1 - 1011] (Eterna round: R96, puzzle: Same State 1) | 0.359 | – | – | – | – | –
2 | AAAAAACAUGAGGAUCACCCAUGUCAAAAGACAUGAGGAUAUGUACAGACUUCGGUCUGUACAGAAGGCAUGAAAA [salish99_ss1_r3_093] (Eterna round: R96, puzzle: Same State 1) | 0.359 | – | – | – | – | –
3 | UGUGCAUGAGUUGUAAAAGCUCAUGGGCAUCGAGGACCGGUACGGCCGCCACUCGGCUGUACAUGAGGAUCACCCAUGUCAGGGU [#1 Same State - Tryptophan A Attempt #22 (HarryS)] | – | 0.133 | 0.609 | 1.1 | – | –
4 | UUACAUGAGGAUCACCCAUGUCAUAAUGAUACCAGAUAGUUAAUGAUCCCUUGGCAGCAUAAUACCUAGACAUUUAAGUCAUAGG [Aa] | – | 0.0595 | 0.08 | – | 0.0562 | –
5 | UUACAUGAGGAUCACCCAUGUCAUACAGAAGGAGCGUCACAUAAGACAGGUAGGUCGCUGUUAUUUAAUACUAUUAUAUCCUCUA [JR_Nu_ExcArginiA_Sub027] | – | 0.0269 | 0.0449 | 0.0352 | 0.0328 | 0.0337
6 | UUAGAUAUGACGGAUACCAGCGUGUUGUAGAACAUGAGGAUCACCCAUGUAGUGAUCGUGCGCCCUUGGCAGCUGGUAUGUUUGG [7.V] | – | 0.133 | 0.491 | – | 0.501 | –
7 | UUCAGACAUGAGGAUCACCCAUGUACUGAAGGAGCGGAUAAAUAUCCAGGUAGGUCGCAGUAUUGAGGGUCUACUUCCAGUCUUU [Reoruser] | – | 0.00842 | 0.0119 | 0.00947 | 0.00982 | 0.00948
8 | UUCAGCUAGUCGGCCGCCACUACAUGAGGAUCACCCAUGUAAUCCUAACACUGCUUCGGCAGUGGUAGGACCGGGACUAGCUGAG | – | 0.0111 | 0.0143 | 0.0122 | – | –
9 | UUCAGCUAGUCGGCCGCCACUACAUGAGGAUCACCCAUGUAUCCUAAACACUGCUUCGGCAGUGGUAGGACCGGGACUAGCUGAG | – | 0.0181 | 0.0216 | 0.0183 | 0.136 | 0.0139
10 | UUGAUCAUAUAUGAAAACAUAUAUGCAGAAGGAGCGUGAUAAAACACAGGUAGGUCGCUGAAGGGAACAUGAGGAUCACCCAUGU [AstrosSSArgA#3] | – | 0.0302 | 0.0394 | 0.0341 | 0.0268 | 0.0272
11 | UUGUUAUACGGAAGGAGCGUGUAAGAUUAAGAACAUGAGGAUCACCCAUGUUUUAAGGGAACACAGGUAGGUCGCCGUAUAGUGG [11.P] | – | 0.0164 | 0.0132 | 0.0113 | 0.0147 | 0.01
12 | UUGUUGUACGGAAGGAGCGUGUAAGAUUAAGAACAUGAGGAUCACCCAUGUUUUAAGGGAACACAGGUAGGUCGCCGUGUGGUGG [11.Q] | – | 0.014 | 0.02 | 0.0164 | 0.0162 | 0.0151
13 | UUUAUGGAGCUUUUAUUUACGAUUUCUGAUACCAGUGUUUCAUUUCACCCUUGGCAGCAGUGACAUGAGGAUCACCCAUGUAAUA [JR_Nu_SSTheophyA_Sub020] | – | 0.0281 | 0.0351 | – | 0.0277 | –
14 | UUUAUUAUUGACUCGUUUUGGUAUUAAGAACGAGGACCGGUACGGCCGCCACUCGUGAUAUACAUGAGGAUCACCCAUGUUAGCA [JR_Nu_SSTryptoA_Sub021] | – | 0.0194 | 0.0194 | 0.0183 | – | –
15 | UUUUUCGCGGGCGAUACCAGCUUGAUCGUACUGGCCUGGUACAUGAGGAUCACCCAUGUAAGCCCUUGGCAGCGCGCGGGAGAAG [Exclusion - Theophylline B Attempt #1 (HarryS)] | – | 0.0115 | 0.0146 | 0.0202 | 0.0152 | 0.0127
16 | UUUUUCGCGUUUGAUACCAGCAGAGUUGUUCUGGUCUGGUACAUGAGGAUCACCCAUGUCUGCCCUUGGCAGCAAACGGGAGAAG [XTheo #30] | – | 0.0145 | 0.015 | – | 0.0149 | –
